We go through three substances from patent publication US6183121.

Series [1] has as its target HCV NS3 full-length (wild type) (Hepatitis C virus) (UniProt P26664). Briefly: filter. The following applies: reference.
Series [2] addresses HCV NS3 helicase domain (wild type) (Hepatitis C virus) (UniProt P26664). The series can be described thus: filter. Conditions: 25 mM MOPS pH 7.0, 2 mM DTT, 30 C; 0.445 RNA per helicase molecule; koff 1.52e-2 min-1.
Series [3] concerns the target HCV NS3 full-length (wild type) (Hepatitis C virus) (UniProt P26664).
Series [4] deals with HCV NS3 helicase domain (wild type) (Hepatitis C virus) (UniProt P26664). The following applies: requires ATP and Mn2+ or Mg2+; 25 mM MOPS pH 6.5, 1 mM ATP, 0.5 mM MnCl2, 37 C.
Series [5] has the same target. Conditions: poly(U)-stimulated ATPase; 50 mM MOPS pH 7.0, 0.5 mM MgCl2, 37 C.

Consider “34-nt ssRNA (SP6 transcript of BamHI-digested pSP64)”, for which the binding signal in series [1] is 100 % of WT. In series [2], this substance returned a Kd of 5.18 nM.

On to “3'-tailed 98-nt RNA / 34-nt DNA hybrid (pSP65 BsrBI transcript; pSP64 release strand)”, for which the activity (% of WT unwinding) in series [3] (reference) and in series [4] was 100 in each case.

In the case of poly(U), the activity (% of basal WT ATPase) in series [3] (poly(U)-stimulated ATPase) was 581; in series [5], 823.

The term Kd denotes the concentration at which binding is half-saturated.
